B1: Katanin p60 ATPase-containing subunit A1 (Mus musculus), Q9WV86 (parent)
chain: MSLQMIVENVKLAREYALLGNYDSAMVYYQGVLDQMNKYLYSVKDTHLRQKWQQVWQEINVEAKQVKDIMKTLESFKLDITSLQAAQHELPAAEGEVWSLPVPVERRPLPGPRKRQSSQHSDPKPHSNRPSTVVRAHRPSPQNLHNDRGKAVRSREKKEQSKGREEKNKLPAAVTEPEANKFDGTGYDKDLVEALERDIISQNPNVRWYDIADLVEAKKLLQEAVVLPMWMPEFFKGIRRPWKGVLMVGPPGTGKTLLAKAVATECKTTFFNVSSSTLTSKYRGESEKLVRLLFEMARFYSPATIFIDEIDSICSRRGTSEEHEASRRMKAELLVQMDGVGGASENDDPSKMVMVLAATNFPWDIDEALRRRLEKRIYIPLPSAKGREELLRISLRELELADDVNLASIAENMEGYSGADITNVCRDASLMAMRRRIEGLTPEEIRNLSREAMHMPTTMEDFEMALKKISKSVSAADIERYEKWIVEFGSC

The assay covers variants of B1. The settings on record: with ktnb1_mouse Katnb1, Q8BG40.
Chain of ktnb1_mouse Katnb1, Q8BG40 (Q8BG40 whole entry): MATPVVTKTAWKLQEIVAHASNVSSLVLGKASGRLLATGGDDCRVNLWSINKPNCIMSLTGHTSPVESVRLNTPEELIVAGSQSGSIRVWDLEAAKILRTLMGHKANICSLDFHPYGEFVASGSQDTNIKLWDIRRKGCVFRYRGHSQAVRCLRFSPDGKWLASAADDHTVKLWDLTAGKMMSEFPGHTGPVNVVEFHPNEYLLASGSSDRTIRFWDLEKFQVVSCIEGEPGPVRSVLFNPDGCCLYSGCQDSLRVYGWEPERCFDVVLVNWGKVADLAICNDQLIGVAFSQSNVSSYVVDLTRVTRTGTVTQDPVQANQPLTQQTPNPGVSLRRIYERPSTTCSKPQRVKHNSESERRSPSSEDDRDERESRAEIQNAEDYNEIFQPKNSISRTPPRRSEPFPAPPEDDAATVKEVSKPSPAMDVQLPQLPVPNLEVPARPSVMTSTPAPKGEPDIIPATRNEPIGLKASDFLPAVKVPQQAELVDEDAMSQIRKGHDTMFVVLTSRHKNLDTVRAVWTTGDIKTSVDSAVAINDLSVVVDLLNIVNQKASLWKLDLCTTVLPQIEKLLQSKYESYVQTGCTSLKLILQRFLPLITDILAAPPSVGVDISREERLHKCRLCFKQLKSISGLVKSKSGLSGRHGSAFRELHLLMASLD
With L19A, the “effect of a mutation on the interaction” value was “with no effect”.
With L18A the entry was “with no effect”.

For the origin of these results see IntAct's records for PubMed 28436967.
